Tested on: T1, GtrR (Burkholderia cenocepacia H111), ORF:a5d7dc98
T1 sequence: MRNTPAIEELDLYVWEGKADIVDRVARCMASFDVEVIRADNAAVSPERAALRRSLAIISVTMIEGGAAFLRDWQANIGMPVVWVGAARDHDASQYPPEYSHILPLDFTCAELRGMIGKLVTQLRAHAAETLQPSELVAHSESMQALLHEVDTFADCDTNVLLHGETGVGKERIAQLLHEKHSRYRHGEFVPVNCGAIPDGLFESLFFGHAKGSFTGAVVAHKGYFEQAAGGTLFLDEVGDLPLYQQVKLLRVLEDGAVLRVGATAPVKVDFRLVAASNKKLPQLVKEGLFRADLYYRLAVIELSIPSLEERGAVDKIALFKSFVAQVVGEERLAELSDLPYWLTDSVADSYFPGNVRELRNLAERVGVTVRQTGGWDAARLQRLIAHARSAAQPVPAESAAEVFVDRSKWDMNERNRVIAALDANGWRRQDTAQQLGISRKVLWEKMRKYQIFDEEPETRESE
Assay: EMSA
Conditions: Binding reactions per manufacturer's instructions (Thermo), 3'-biotin probes, 5% polyacrylamide gel; buffer, salt, pH and temperature not stated

Q: How did the binding turn out when “GGCTTGCGTATTTCTGGCCCGGTTGATTGATTTTGGTTGTGATTTTTTGCCACGCAACGTCGAAAACGCATCGCGCGGCCCCAGTTCGCTCTCGTATCGAAAATGAGATTTTCGATTTCGCAGACAATTGTTAAATGCGGAACCGATATCCGTCAACCTGAGAAAACGGGCGGCTTGCGTAAAATCGAAATCGCGGGTACCGGTTTAAGGTTGCAATGCAGCA (double strand) [Bcal3178 promoter 223 bp]” was run?
A: Its binding is “no binding”.

— PMC8174753
